From patent publication US20040043420A1, “Method of identifying conformation-sensitive binding peptides and uses thereof” (priority 2003, published 2004) come the findings set out here.

Assay [1] deals with T1, ER β, Q92731.
T1 chain: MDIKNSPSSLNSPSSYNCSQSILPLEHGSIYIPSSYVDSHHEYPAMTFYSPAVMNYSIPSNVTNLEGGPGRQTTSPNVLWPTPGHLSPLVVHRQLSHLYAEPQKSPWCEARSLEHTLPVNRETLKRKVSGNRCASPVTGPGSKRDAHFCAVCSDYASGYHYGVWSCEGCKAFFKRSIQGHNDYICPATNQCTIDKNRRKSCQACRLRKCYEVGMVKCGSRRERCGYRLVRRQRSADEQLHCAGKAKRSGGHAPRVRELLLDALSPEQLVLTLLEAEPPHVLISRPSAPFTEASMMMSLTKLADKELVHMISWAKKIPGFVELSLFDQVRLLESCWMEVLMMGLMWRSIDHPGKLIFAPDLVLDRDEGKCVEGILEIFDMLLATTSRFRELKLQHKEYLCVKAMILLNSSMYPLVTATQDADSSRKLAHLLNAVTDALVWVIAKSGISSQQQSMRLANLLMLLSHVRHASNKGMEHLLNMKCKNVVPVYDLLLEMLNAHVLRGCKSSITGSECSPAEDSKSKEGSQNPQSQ
Kind of assay: peptide probe binding to ERβ, all modulators.

Assay [2] deals with T2, ER α (UniProt P03372 1-595, limits assumed).
T2 construct: also called estrogen receptor α; ERα-ERE
T2 sequence (looked up): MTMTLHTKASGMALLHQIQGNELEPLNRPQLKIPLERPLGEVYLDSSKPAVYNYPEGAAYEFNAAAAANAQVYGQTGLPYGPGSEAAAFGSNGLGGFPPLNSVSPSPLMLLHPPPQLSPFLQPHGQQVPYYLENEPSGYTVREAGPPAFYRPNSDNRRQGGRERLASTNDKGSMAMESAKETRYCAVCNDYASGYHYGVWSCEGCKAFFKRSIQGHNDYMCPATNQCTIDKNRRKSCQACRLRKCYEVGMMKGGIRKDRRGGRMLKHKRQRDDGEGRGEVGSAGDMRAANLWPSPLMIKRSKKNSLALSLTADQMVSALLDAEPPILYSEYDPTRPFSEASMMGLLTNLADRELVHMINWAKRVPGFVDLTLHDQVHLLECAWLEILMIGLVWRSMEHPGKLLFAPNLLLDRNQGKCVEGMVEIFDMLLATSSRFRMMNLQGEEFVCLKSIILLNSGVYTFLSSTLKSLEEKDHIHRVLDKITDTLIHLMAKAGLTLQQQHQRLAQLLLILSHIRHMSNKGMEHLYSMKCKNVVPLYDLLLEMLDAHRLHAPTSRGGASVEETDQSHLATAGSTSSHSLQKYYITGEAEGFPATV
Description: peptide probe binding to ERα, 4-OH Tamoxifen.

Assay [3] deals with T2, ER α. Description: peptide probe binding to ERα, GW7604.
For assay [4], the target named is T2, ER α. Description: peptide probe binding to ERα, ICI 182,780.
Assay [5] deals with T2, ER α. Description: peptide probe binding to ERα, Diethylstilbesterol.
For assay [6], the target named is T2, ER α. Kind of assay: peptide probe binding to ERα, Raloxifene.
In assay [7] the target is T3, ER β (UniProt Q92731 1-530, limits assumed).
T3 construct: In vitro; also called estrogen receptor β; ERβ-ERE
Description: peptide probe binding to ERβ, Estriol.

Assay [8] has as its target T2, ER α. Description: peptide probe binding to ERα, Buffer.
Assay [9] deals with T2, ER α. Description: phage ELISA, ICI 182,780 1 µM. On the technique in general: An ELISA detects its analyte on a solid surface through an enzyme-linked reagent.
For assay [10], the target named is T1, ER β, Q92731. Description: phage ELISA, raloxifene 1 µM.
Assay [11] concerns the target T4, ER α, P03372.
T4 chain: T2 sequence (looked up)
Description: peptide probe binding to ERα, 17β-Estradiol.

Assay [12] concerns the target T4, ER α, P03372. Description: peptide probe binding to ERα, GW7604.
Assay [13] has as its target T4, ER α, P03372. Description: peptide probe binding to ERα, ICI 182,780.
Assay [14] deals with T4, ER α, P03372. Kind of assay: peptide probe binding to ERα, Estriol.
The target of assay [15] is T4, ER α, P03372. Description: peptide probe binding to ERα, Clomiphene.
For assay [16], the target named is T4, ER α, P03372. Kind of assay: peptide probe binding to ERα, Buffer.
In assay [17] the target is T4, ER α, P03372. Kind of assay: peptide probe binding to ERα, Nafoxidine.
In assay [18] the target is T4, ER α, P03372. Kind of assay: peptide probe binding to ERα, 17α-Estradiol.
In assay [19] the target is T1, ER β, Q92731. Kind of assay: peptide probe binding to ERβ, 17β-Estradiol.
Assay [20] addresses T4, ER α, P03372. Description: peptide probe binding to ERα, Diethylstilbesterol.
Assay [21] deals with T1, ER β, Q92731. Kind of assay: phage ELISA, clomiphene 10 µM.
For assay [22], the target named is T4, ER α, P03372. Kind of assay: peptide probe binding to ERα, Raloxifene.
Assay [23] deals with T1, ER β, Q92731. Kind of assay: peptide probe binding to ERβ, Estriol.
The target in assay [24] is T1, ER β, Q92731. Kind of assay: peptide probe binding to ERβ, Buffer.
The target in assay [25] is T1, ER β, Q92731. Kind of assay: phage ELISA, ICI 182,780 1 µM.
Assay [26] addresses T1, ER β, Q92731. Description: peptide probe binding to ERβ, GW 7604.
Assay [27] has as its target T4, ER α, P03372. Kind of assay: peptide probe binding to ERα, 4-OH Tamoxifen.
In assay [28] the target is T1, ER β, Q92731. Description: peptide probe binding to ERβ, 17α-Estradiol.
Assay [29] has as its target T1, ER β, Q92731. Kind of assay: peptide probe binding to ERβ, Diethylstilbesterol.
In assay [30] the target is T1, ER β, Q92731. Kind of assay: phage ELISA, 4-OH tamoxifen 1 µM.
Assay [31] addresses T2, ER α. Description: affinity of phage class for unliganded ER α.
In assay [32] the target is T3, ER β. Description: peptide probe binding to ERβ, 17α-Estradiol.
Assay [33] has as its target T2, ER α. Description: peptide probe binding to ERα, Nafoxidine.
Assay [34] has as its target T3, ER β. Kind of assay: peptide probe binding to ERβ, Clomiphene.
The target in assay [35] is T3, ER β. Description: peptide probe binding to ERβ, Diethylstilbesterol.
Assay [36] has as its target T3, ER β. Kind of assay: peptide probe binding to ERβ, ICI 182,780.
The target of assay [37] is T3, ER β. Kind of assay: peptide probe binding to ERβ, Buffer.
Assay [38] deals with T2, ER α. Kind of assay: peptide probe binding to ERα, 17α-Estradiol.
For assay [39], the target named is T3, ER β. Description: peptide probe binding to ERβ, Raloxifene.
Assay [40] deals with T2, ER α. Kind of assay: peptide probe binding to ERα, Estriol.
Assay [41] addresses T2, ER α. Description: peptide probe binding to ERα, 17β-Estradiol.
Assay [42] concerns the target T3, ER β. Kind of assay: peptide probe binding to ERβ, 4-OH Tamoxifen.
Assay [43] has as its target T3, ER β. Description: peptide probe binding to ERβ, GW 7604.
Assay [44] has as its target T3, ER β. Kind of assay: phage ELISA, ICI 182,780 1 µM.
In assay [45] the target is T3, ER β. Description: peptide probe binding to ERβ, 17β-Estradiol.
Assay [46] addresses T3, ER β. Description: peptide probe binding to ERβ, Nafoxidine.

B1: α/β II (peptide)
peptide: SAPRATISHYLMGG
modifications: not checked
For B1, in the assay with ER β, Q92731 [1], the Equiv. amounted to 0%.

B2: T1-10 (peptide)
peptide: SRLPPSVFSMCGSEVCLSR
notes: also called 9T-β; 9Tβ
Take B2: the Equiv. is 100% with ER α [2]; 0% in the assay with ER α [3]; -100% with ER α [4]; 0% with ER α [5]; 0% with ER α [6]; -75% with ER β [7]. Also, in the assay with ER α [8], the Equiv. turned out to be 0%. In addition, in the assay with ER α [9], the “phage ELISA grade” value amounted to 0.

B3: phage 4 (Table 2) (peptide)
peptide: SSNHQSSRLIELLSR
modifications: not checked
B3: the phage ELISA grade with ER β, Q92731 [10] stood at 0; with ER β, Q92731 [21], 0; with ER β, Q92731 [25], 0; in the assay with ER β, Q92731 [30], 0. The Equiv. with ER α, P03372 [11] was determined as 100%; with ER α, P03372 [12], 0%; in the assay with ER α, P03372 [13], 0%; with ER α, P03372 [14], 65%; with ER α, P03372 [15] it was 0%; with ER α, P03372 [16], 0%. For the same molecule, the Equiv. in the assay with ER α, P03372 [17] is 0%; with ER α, P03372 [18], 53%; with ER β, Q92731 [19], 100%; in the assay with ER α, P03372 [20], 71%; with ER α, P03372 [22], 0%; in the assay with ER β, Q92731 [23], 81%. In addition, the Equiv. was 0% with ER β, Q92731 [24]; 0% in the assay with ER β, Q92731 [26]; 0% with ER α, P03372 [27]; 44% in the assay with ER β, Q92731 [28]; 68% in the assay with ER β, Q92731 [29].

B4: #41 ER + estradiol (Table 3) (peptide)
peptide: HGPLTLNLLRSSGG
For B4, in the assay with ER α [31], the binding result is recorded as “binds”.

B5: 14T-β (peptide)
peptide: SSPGSREWFKDMLSR
notes: also called α/β V; AB5
On to B5, for which the Equiv. with ER β [32] stood at 0%; with ER α [2], 100%; with ER α [33] it was 0%; with ER β [34] it was 13%; in the assay with ER β [35], 0%; in the assay with ER β [36], 0%. The Equiv. with ER β [37], with ER α [38], with ER β [39], in the assay with ER α [3], in the assay with ER α [4] and in the assay with ER α [40] was 0% throughout. Further, the Equiv. worked out at 0% in the assay with ER α [5]; 0% in the assay with ER α [6]; 0% in the assay with ER β [7]; 0% with ER α [41]; 100% in the assay with ER β [42]; 0% in the assay with ER β [43]. Also, the Equiv. in the assay with ER α [8], with ER β [45] and with ER β [46] was 0% each time. In the assay with ER β [44], the “phage ELISA grade” value is 0.
